According to US20140087995A1 (published 2014):
Numbered stars: 1 amine (or outer) side, 2 acyl side, 3 side chain; on linkers, the order of the positions; unused ones are H or OH. Bridge positions count the residues as written; N and C are the ends. Side chains are listed from the residue outwards. Ends that are not written are not given here. * marks the point of attachment. C20 diacid = O=C(O)CCCCCCCCCCCCCCCCCCC(=O)*; γGlu = O=C(O)[C@H](CCC(=O)[*:2])N[*:1]

T1: rat calcitonin receptor (rat, UniProt P32214 25-516)
T1 construct: whole, on cells; In cell membranes prepared from transiently transfected BHK tk'ts 13 cells (Assay VIII); also called rCTR; rat calcitonin (a) receptor
T1 sequence (looked up): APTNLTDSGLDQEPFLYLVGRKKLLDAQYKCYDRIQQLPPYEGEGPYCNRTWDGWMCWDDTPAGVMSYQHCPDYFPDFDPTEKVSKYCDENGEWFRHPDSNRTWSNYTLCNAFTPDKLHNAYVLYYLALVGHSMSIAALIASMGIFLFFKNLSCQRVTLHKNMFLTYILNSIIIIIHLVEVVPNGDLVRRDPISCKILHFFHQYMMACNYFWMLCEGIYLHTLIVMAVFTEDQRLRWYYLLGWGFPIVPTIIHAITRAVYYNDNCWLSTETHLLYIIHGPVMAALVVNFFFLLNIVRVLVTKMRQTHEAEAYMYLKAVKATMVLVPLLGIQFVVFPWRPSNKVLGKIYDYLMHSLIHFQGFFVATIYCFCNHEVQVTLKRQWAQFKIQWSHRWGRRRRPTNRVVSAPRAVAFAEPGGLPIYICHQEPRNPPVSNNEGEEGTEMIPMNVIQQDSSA

T2: rat amylin receptor (rat calcitonin receptor + rat RAMP 3) (rat, UniProt P32214 25-516; Q9JJ73 23-147)
T2 construct: whole, on cells; Receptor complex in cell membranes prepared from transiently transfected BHK tk'ts 13 cells (Assay VI); also called rAmylin-R; rat amylin 3(a) receptor
T2 sequence (looked up) 1: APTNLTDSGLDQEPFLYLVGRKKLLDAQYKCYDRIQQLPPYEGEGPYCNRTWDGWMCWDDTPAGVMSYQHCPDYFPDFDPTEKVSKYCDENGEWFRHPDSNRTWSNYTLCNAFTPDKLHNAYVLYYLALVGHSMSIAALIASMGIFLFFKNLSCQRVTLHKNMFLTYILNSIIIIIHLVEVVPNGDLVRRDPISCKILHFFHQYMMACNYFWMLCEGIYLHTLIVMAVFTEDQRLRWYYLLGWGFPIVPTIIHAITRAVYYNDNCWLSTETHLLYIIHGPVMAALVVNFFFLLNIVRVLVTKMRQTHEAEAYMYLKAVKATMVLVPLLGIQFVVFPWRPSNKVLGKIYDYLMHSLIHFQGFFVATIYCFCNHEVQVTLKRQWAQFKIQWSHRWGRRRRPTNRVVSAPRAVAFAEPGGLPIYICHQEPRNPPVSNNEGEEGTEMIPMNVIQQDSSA
T2 sequence (looked up) 2: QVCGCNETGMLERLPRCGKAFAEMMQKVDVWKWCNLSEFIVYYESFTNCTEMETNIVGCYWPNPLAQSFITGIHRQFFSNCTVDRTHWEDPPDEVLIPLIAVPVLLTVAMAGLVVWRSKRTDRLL

T3: human calcitonin receptor (human, UniProt P30988 25-474)
T3 construct: whole, on cells; Cell membranes from the stably transfected cell line (Assay VII); also called hCTR; hCT
T3 sequence (looked up): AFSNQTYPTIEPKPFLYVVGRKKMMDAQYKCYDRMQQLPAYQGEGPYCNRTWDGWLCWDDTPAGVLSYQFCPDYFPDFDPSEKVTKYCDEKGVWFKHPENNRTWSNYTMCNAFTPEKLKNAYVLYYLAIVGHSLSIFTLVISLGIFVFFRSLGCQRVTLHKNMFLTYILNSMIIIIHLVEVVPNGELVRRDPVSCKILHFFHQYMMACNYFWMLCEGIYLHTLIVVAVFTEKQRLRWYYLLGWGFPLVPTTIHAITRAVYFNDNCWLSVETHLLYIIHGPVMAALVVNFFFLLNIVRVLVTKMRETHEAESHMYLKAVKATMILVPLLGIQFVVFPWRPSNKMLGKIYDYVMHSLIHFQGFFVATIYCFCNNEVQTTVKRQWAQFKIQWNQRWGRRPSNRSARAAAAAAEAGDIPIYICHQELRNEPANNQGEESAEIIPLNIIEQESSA


Columns and labels:
rat calcitonin receptor [1] = molecular target: T1, rat calcitonin receptor; test: ratio of binding IC50s: rat calcitonin receptor (Assay VIII) over rat amylin receptor (Assay VI)
[2] = molecular target: T2, rat amylin receptor (rat calcitonin …); test: SPA competition binding, displacement of 125I-rat amylin from membranes of BHK tk'ts 13 cells with rat calcitonin receptor + rat RAMP 3 (Assay VI)
Procedure: The binding assay was performed using scintillation proximity assay (SPA) beads (RPNQ0001) from PerkinElmer and cell membranes from the Amylin 3(a)/CRE-luc cells (as described in Assay (II)) were used. Membranes were prepared in the following way; the cells were rinsed with PBS and incubated with Versene for approximately 5 min before harvesting. The cells were flushed with PBS and the cell-suspension was centrifuged for 5 min at 1000 rpm. Cells were homogenized (ultrathurrax) in a buffer containing 20 mM Na-HEPES and 10 mM EDTA (pH 7.4) and centrifuged at 20.000 rpm for 15 min. The resulting pellet was resuspended, homogenized and centrifuged (20.000 rpm, 15 min) in a buffer containing 20 mM Na-HEPES and 0.1 mM EDTA (pH 7.4, buffer 2). The resulting pellet was resuspended in buffer 2 and protein concentration was measured (BCA protein Assay, Pierce). The homogenate was kept cold during the whole procedure. The membranes were kept at −80° C. until use. The assay was performed in a 384 well Optiplate (PerkinElmer) in a total volume of 40 ul. Membranes were mixed with SPA beads. Final concentration of membranes 35 ng/μL final and SPA beads was 0.05 mg/well. Test-compounds were dissolved in DMSO and further diluted in assay buffer (50 mM Hepes, pH 7.4, 1 mM CaCl2, 5 mM MgCl₂, 0.1% OA and 0.02% Tween20). […] The final mixture was incubated with shaking at 400 rpm for 120 min at 25° C. prior to centrifugation (1500 rpm, 10 min). Samples were analyzed on TopCounter™ (Packard). The IC₅₀ was calculated using (one site binding competition analysis) GraphPad Prism5 as a measure of receptor affinity.
Cells were grown in DMEM with 10% FBS and 1% Pen/Strep. Approximately 48 hours after transfection, the cells were harvested and membranes were prepared.

[3] = molecular target: T3, human calcitonin receptor; test: ratio of binding IC50s: human calcitonin receptor (Assay VII) over human amylin receptor (Assay V)
Procedure: The resulting pellet was resuspended, homogenized and centrifuged (20.000 rpm, 15 min) in a buffer containing 20 mM Na-HEPES and 0.1 mM EDTA (pH 7.4, buffer 2). The resulting pellet was resuspended in buffer 2 and protein concentration was measured (BCA protein Assay, Pierce). The homogenate was kept cold during the whole procedure. The membranes were kept at −80° C. until use. The assay was performed in a 384 well Optiplate (PerkinElmer) in a total volume of 40 ul. Membranes were mixed with SPA beads. Final concentration of membranes 35 ng/μL final and SPA beads was 0.05 mg/well. Test-compounds were dissolved in DMSO and further diluted in assay buffer (50 mM Hepes, pH 7.4, 1 mM CaCl2, 5 mM MgCl₂, 0.1% OA and 0.02% Tween20). […] The final mixture was incubated with shaking at 400 rpm for 120 min at 25° C. prior to centrifugation (1500 rpm, 10 min). Samples were analyzed on TopCounter™ (Packard). The IC₅₀ was calculated using (one site binding competition analysis) GraphPad Prism5 as a measure of receptor affinity.
Membranes were prepared in the following way; the cells were rinsed with PBS and incubated with Versene for approximately 5 min before harvesting. The cells were flushed with PBS and the cell-suspension was centrifuged for 5 min at 1000 rpm. Cells were homogenized (Ultrathurrax) in a buffer containing 20 mM Na-HEPES and 10 mM EDTA (pH 7.4) and centrifuged at 20.000 rpm for 15 min. The resulting pellet was resuspended, homogenized and centrifuged (20.000 rpm, 15 min) in a buffer containing 20 mM Na-HEPES and 0.1 mM EDTA (pH 7.4, buffer 2). The resulting pellet was resuspended in buffer 2 and protein concentration was measured (BCA protein Assay, Pierce). The homogenate was kept cold during the whole procedure. The membranes were kept at −80° C. until use. Assay was performed in a 384 well Optiplate (PerkinElmer) in a total volume of 40 ul. Membranes were mixed with SPA beads.

rat calcitonin receptor [4] = molecular target: T1, rat calcitonin receptor; test: SPA competition binding, displacement of 125I-Calcitonin from membranes of BHK tk'ts 13 cells with rat calcitonin receptor (Assay VIII)

Row | Binder | Ratio rCT/rAmylin binding (rat calcitonin receptor [1]) | IC50 [2] [nM] | Ratio hCT/hAmylin binding [3] | IC50 (rat calcitonin receptor [4]) [nM]
1 | K([γGlu-C20 diacid])CNTATCATQRLADFLRHSSPNFGAIPSSTNVGPRTY-NH2 (disulfide 2-7; N-terminus assumed; SMILES CC[C@H](C)[C@H](NC(=O)[C@H](C)NC(=O)CNC(=O)[C@H](Cc1ccccc1)NC(=O)[C@H](CC(N)=O)NC(=O)[C@@H]1CCCN1C(=O)[C@H](CO)NC(=O)[C@H](CO)NC(=O)[C@H](Cc1c[nH]cn1)NC(=O)[C@H](CCCNC(=N)N)NC(=O)[C@H](CC(C)C)NC(=O)[C@H](Cc1ccccc1)NC(=O)[C@H](CC(=O)O)NC(=O)[C@H](C)NC(=O)[C@H](CC(C)C)NC(=O)[C@H](CCCNC(=N)N)NC(=O)[C@H](CCC(N)=O)NC(=O)[C@@H](NC(=O)[C@H](C)NC(=O)[C@@H]1CSSC[C@H](NC(=O)[C@@H](N)CCCCNC(=O)CC[C@H](NC(=O)CCCCCCCCCCCCCCCCCCC(=O)O)C(=O)O)C(=O)N[C@@H](CC(N)=O)C(=O)N[C@@H]([C@@H](C)O)C(=O)N[C@@H](C)C(=O)N[C@@H]([C@@H](C)O)C(=O)N1)[C@@H](C)O)C(=O)N1CCC[C@H]1C(=O)N[C@@H](CO)C(=O)N[C@@H](CO)C(=O)N[C@H](C(=O)N[C@@H](CC(N)=O)C(=O)N[C@H](C(=O)NCC(=O)N1CCC[C@H]1C(=O)N[C@@H](CCCNC(=N)N)C(=O)N[C@H](C(=O)N[C@@H](Cc1ccc(O)cc1)C(N)=O)[C@@H](C)O)C(C)C)[C@@H](C)O) | 116 | 0.504 | 151 | 58.5
2 | K([γGlu-C20 diacid])CNTATCATQRLAEFLRHSSPNFGAIPSSTNVGSHTY-NH2 (disulfide 2-7; N-terminus assumed; SMILES CC[C@H](C)[C@H](NC(=O)[C@H](C)NC(=O)CNC(=O)[C@H](Cc1ccccc1)NC(=O)[C@H](CC(N)=O)NC(=O)[C@@H]1CCCN1C(=O)[C@H](CO)NC(=O)[C@H](CO)NC(=O)[C@H](Cc1c[nH]cn1)NC(=O)[C@H](CCCNC(=N)N)NC(=O)[C@H](CC(C)C)NC(=O)[C@H](Cc1ccccc1)NC(=O)[C@H](CCC(=O)O)NC(=O)[C@H](C)NC(=O)[C@H](CC(C)C)NC(=O)[C@H](CCCNC(=N)N)NC(=O)[C@H](CCC(N)=O)NC(=O)[C@@H](NC(=O)[C@H](C)NC(=O)[C@@H]1CSSC[C@H](NC(=O)[C@@H](N)CCCCNC(=O)CC[C@H](NC(=O)CCCCCCCCCCCCCCCCCCC(=O)O)C(=O)O)C(=O)N[C@@H](CC(N)=O)C(=O)N[C@@H]([C@@H](C)O)C(=O)N[C@@H](C)C(=O)N[C@@H]([C@@H](C)O)C(=O)N1)[C@@H](C)O)C(=O)N1CCC[C@H]1C(=O)N[C@@H](CO)C(=O)N[C@@H](CO)C(=O)N[C@H](C(=O)N[C@@H](CC(N)=O)C(=O)N[C@H](C(=O)NCC(=O)N[C@@H](CO)C(=O)N[C@@H](Cc1c[nH]cn1)C(=O)N[C@H](C(=O)N[C@@H](Cc1ccc(O)cc1)C(N)=O)[C@@H](C)O)C(C)C)[C@@H](C)O) | 22.7 | 1.16 | 26.4 | 26.3
3 | K([γGlu-C20 diacid])CNTATCATQRLADFLRHSSPNFGAIPSSTNVGPETY-NH2 (disulfide 2-7; N-terminus assumed; SMILES CC[C@H](C)[C@H](NC(=O)[C@H](C)NC(=O)CNC(=O)[C@H](Cc1ccccc1)NC(=O)[C@H](CC(N)=O)NC(=O)[C@@H]1CCCN1C(=O)[C@H](CO)NC(=O)[C@H](CO)NC(=O)[C@H](Cc1c[nH]cn1)NC(=O)[C@H](CCCNC(=N)N)NC(=O)[C@H](CC(C)C)NC(=O)[C@H](Cc1ccccc1)NC(=O)[C@H](CC(=O)O)NC(=O)[C@H](C)NC(=O)[C@H](CC(C)C)NC(=O)[C@H](CCCNC(=N)N)NC(=O)[C@H](CCC(N)=O)NC(=O)[C@@H](NC(=O)[C@H](C)NC(=O)[C@@H]1CSSC[C@H](NC(=O)[C@@H](N)CCCCNC(=O)CC[C@H](NC(=O)CCCCCCCCCCCCCCCCCCC(=O)O)C(=O)O)C(=O)N[C@@H](CC(N)=O)C(=O)N[C@@H]([C@@H](C)O)C(=O)N[C@@H](C)C(=O)N[C@@H]([C@@H](C)O)C(=O)N1)[C@@H](C)O)C(=O)N1CCC[C@H]1C(=O)N[C@@H](CO)C(=O)N[C@@H](CO)C(=O)N[C@H](C(=O)N[C@@H](CC(N)=O)C(=O)N[C@H](C(=O)NCC(=O)N1CCC[C@H]1C(=O)N[C@@H](CCC(=O)O)C(=O)N[C@H](C(=O)N[C@@H](Cc1ccc(O)cc1)C(N)=O)[C@@H](C)O)C(C)C)[C@@H](C)O) | 62 | 0.3 | 16.7 | 18.6
